According to the nanobody polyreactivity screen of Harvey et al. (2022):

Assay: yeast display, Sf9 membrane polyspecificity reagent, FACS + sequencing; frameworks hold sequencing errors
How it was run: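 Sorting gates, low and high (top ~1%), were placed on anti-HA fluorescence to track expression and on streptavidin fluorescence to track reagent binding. A clone's polyreactivity label is taken from the gate it came out of. The reagent was 10% biotinylated, detergent-solubilized Sf9 membrane, applied for 1 hour at 4 °C to galactose-induced yeast display cells.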
With “QVQLVESGGGLVQAGGSLRLSCAASGCIFYPYAMGWYRQAPGKERELVAAITYSGGSTYADSVKGRFTISRDNAKNTVYLQMNSLKPEDTAVYYCNAKFYFYGGTYIVKYDYWGQGTQVTVSS” the “polyreactivity (PSR sort gate)” value was “high polyreactivity”.
In the case of “QVQLVESGGGLVQAGGSLRLSCAASGCTSTSNAMGWYRQAPGKERELVALISSGGSTYYAVSVKGRFTISRDNAKNTVYLQMNSLKQEDTAVYYCAARRGTGSYSYRYPYGYDYWGQGTQVTVSS”, the “polyreactivity (PSR sort gate)” value is reported as “low polyreactivity”.
In the case of “QVQLVESGGGLVQAGGSLRLSCAASGFAFSYYAMGWYRQAPGKEREFVASIDWSGGSTYYADSVKGRFTISRDNAKNTVYLQMNSLKAEDTAVYYCAAELDYFPGYDYWGQGTQVTVSS”, the “polyreactivity (PSR sort gate)” value is reported as “low polyreactivity”.
For “QVQLVESGGGLVQAGGSLRLSCAASGFICGYYAMGWYRQAPGKERELVADISRGGNTNYAESVKGRFTISRDNAKNSVYLQMNSLKPEDTAVYYCARYRRGKMDYWGQGTQVTVSS”, the “polyreactivity (PSR sort gate)” value was “high polyreactivity”.
With “QVQLVESGGGLVQAGGSLRLSCAASGFIFAANAMGRYRQAPGKEREMVAAISESGGSTYYADSVKGRFTISRDNAKNTVYLQLNSLKPEDTAVYYCNADIVWSPVLGEYYYWGQGTQVTVSS” the “polyreactivity (PSR sort gate)” value was “high polyreactivity”.
For “QVQLVESGGGLVQAGGSLRLSCAASGFIFAAYAMGWYRQAPGKERELVAAITWDGGSTYYADSVKGSFTISRDNAKNTVYLQMNSLKPEDTAVYYCAARRRHGYDYWGQGTQVTVSS”, the “polyreactivity (PSR sort gate)” value was “high polyreactivity”.
For “QVQLVESGGGLVQAGGSLRLSCAASGFIFAFYARGWYRQAPGKERELVASISRRSGSTYYADSVKGRFTISRDNAKNNVYLQMNSLKPEDTAVYYCSADRPPWETYGYDYWGQGTQVTVSS”, the “polyreactivity (PSR sort gate)” value was “low polyreactivity”.
With “QVQLVESGGGLVQAGGSLRLSCAASGFIFAGYVMGWSRQAPGKERELVAAISSGGRTYYADSVKGRFTISRDNAKNTVYLQMNSLKPEDTAVYYCAAARWQVRATEGNYWGQGTQVTVSS” the “polyreactivity (PSR sort gate)” value was “high polyreactivity”.
For “QVQLVESGGGLVQAGGSLRLSCAASGFIFANNAMGWYRQAPGKERELVAAITSRGASTYYADSVKGRFTISRDNAKNTVYLQMNSLKPEDTAVYYCAKATYHYRRYYWGQGTQVTVSS”, the “polyreactivity (PSR sort gate)” value was “high polyreactivity”.
For “QVQLVESGGGLVQAGGSLRLSCAASGFIFANNAMVWYRQAPGKERELVAVISQRGGRTYYADSVKGRFTISRDNAKNTVYLQMNSLKPADTAVYYCAASYSIAYVSPRNWHDYWGQGTQVTVSS”, the “polyreactivity (PSR sort gate)” value was “low polyreactivity”.
In the case of “QVQLVESGGGLVQAGGSLRLSCAASGFIFANYAMGWYRQAPGKERELVAVISQRGGRTYYADSVKGRFTISRDNAKNTVYLQMNSLKPEDTAVYYCNAVTGEWGQGTQVTVSS”, the “polyreactivity (PSR sort gate)” value is reported as “low polyreactivity”.
For “QVQLVESGGGLVQAGGSLRLSCAASGFIFARYAMGWNRQAPGKERELVAAISTSGGSTYYADSVKGRFTISRDNAKNTVYLQMNSLNPEDTAVYYCNKLRLSRLVHPSGYYWGQGTQVTVSS”, the “polyreactivity (PSR sort gate)” value was “high polyreactivity”.
In the case of “QVQLVESGGGLVQAGGSLRLSCAASGFIFASYAMGWYRQAPGTERELVAAISWRGGSTYYADSVKGRFTISRDNAKNTVYLQMNSLKPEDTAVYYCNAYGYDGTGRGYDTLDYWGQGTQVTVSS”, the “polyreactivity (PSR sort gate)” value is reported as “low polyreactivity”.
With “QVQLVESGGGLVQAGGSLRLSCAASGFIFAWYAMGWYRQAAGKERQLVATISSSGARTYYADSVKGRFTISRDNAKITVYLQMNSLKPEDTAVYYCAFGSVGRLKFYYWGQGTQVTVSS” the “polyreactivity (PSR sort gate)” value was “high polyreactivity”.
In the case of “QVQLVESGGGLVQAGGSLRLSCAASGFIFAWYAMGWYRQAPGKERELVAAIDYSDGTTYYADSVKGRFTISRDNAKNTVYLQMNSLKPEDTAVYYCAAYNEFVYEDDYWGQGTQVTVSA”, the “polyreactivity (PSR sort gate)” value is reported as “low polyreactivity”.
With “QVQLVESGGGLVQAGGSLRLSCAASGFIFAYNAMGWYRQAPGKERELVAAISSRGSRTYYADSVKGRFTISRDKAKNTVYLQMNSLKPEDTAVYYCAARYSRGGFGYWGQGTQVTVSS” the “polyreactivity (PSR sort gate)” value was “high polyreactivity”.
In the case of “QVQLVESGGGLVQAGGSLRLSCAASGFIFAYNAMGWYRQAPGKERELVAAISWSGGSTYYADSVKGRFTISRDNAKNTVFLQMNSLLPEDTAVYYCAARYRRNKYYYWGQGTQVTVSS”, the “polyreactivity (PSR sort gate)” value is reported as “high polyreactivity”.
With “QVQLVESGGGLVQAGGSLRLSCAASGFIFAYNAMGWYRQAPGKERELVAAISWSGGSTYYADSVKGRFTISRDNAKNTVYLQLNSLKPEDTAVYYCNKYIRYPFKRYGYWGQGTQVTVSS” the “polyreactivity (PSR sort gate)” value was “high polyreactivity”.
With “QVQLVESGGGLVQAGGSLRLSCAASGFIFAYYAMGWYRQAPGKERELVAAITNSGGSTYYADSVKGRFTISRDNAKNTVYLQMNSLKPEDTAVYYCAAVIRPRYYQVRPRYDYWGQGTQVTVSS” the “polyreactivity (PSR sort gate)” value was “low polyreactivity”.
For “QVQLVESGGGLVQAGGSLRLSCAASGFIFAYYAMGWYRQAPGKERELVAAITSSGGSTYYADSVKGRFTISRDNAKHTVYLQMNSLKPEDTAVYYCNAVPRHYKGYYWGQGTQVTVSS”, the “polyreactivity (PSR sort gate)” value was “high polyreactivity”.
With “QVQLVESGGGLVQAGGSLRLSCAASGFIFCINAMGWYRQAPGKERELVAAISRSGGRTYYADSVKGRFTISRDNAKNTVYLQMNSLKPEDTAVYYCAADKASYTNYDGDYWGQGTQVTVSS” the “polyreactivity (PSR sort gate)” value was “high polyreactivity”.
In the case of “QVQLVESGGGLVQAGGSLRLSCAASGFIFDAYAMGWYRQAPGKERELVAGISIGGRTNYADSVKGRFTISRDNAKNTVYLQMNSLKPEDTAVYYCAARNYRYYYGSYYRGPITNYEYWGQGTQVTVSS”, the “polyreactivity (PSR sort gate)” value is reported as “low polyreactivity”.
With “QVQLVESGGGLVQAGGSLRLSCAASGFIFDDNAMGWSRQAPGKDWELVAASTSGGGSTYYADSVKGRFTISRDNAKNTVYLQMTSLKPEDTAVYYCYAVPSQPDEFDYWGQGTQATVSS” the “polyreactivity (PSR sort gate)” value was “low polyreactivity”.
In the case of “QVQLVESGGGLVQAGGSLRLSCAASGFIFDDNAMGWYRQAPGKEREVVAAITSGGGSTYYADSVKGRFTISRDNAKNTVYLQMNSLKPEDTAVYYCNAVPSQHDEFDYWGQGTQVTVSS”, the “polyreactivity (PSR sort gate)” value is reported as “low polyreactivity”.
In the case of “QVQLVESGGGLVQAGGSLRLSCAASGFIFDEYAMGWYRQAPGKERELVAAISWSGSRTYYADSVKGRFTISRDNAKNTVYLQMNRLKPEDTSVYYCAKVTGVVAGRRNYWGQGTQVTVSS”, the “polyreactivity (PSR sort gate)” value is reported as “low polyreactivity”.
For “QVQLVESGGGLVQAGGSLRLSCAASGFIFDGNAMGWYRQAPGKERELLAAISWDGGTYYADSVKGRFTISRDNAKNTVYLQMNSLKPEDTAVYYCNKPYGAETAHREFDYWGQGTQVTVSS”, the “polyreactivity (PSR sort gate)” value was “low polyreactivity”.
In the case of “QVQLVESGGGLVQAGGSLRLSCAASGFIFDGYAMGWYRPAPGKERELVAAIDSGGDRTYYADSVKGRFTISRDNAKNTVYLQMNSLKPEDTAVYYCAADSSDPTGYDYWGQGTQVTVSS”, the “polyreactivity (PSR sort gate)” value is reported as “low polyreactivity”.
In the case of “QVQLVESGGGLVQAGGSLRLSCAASGFIFDIYAMGGYRPAPGKERELVAAISSGGSTNYADSVKGRFTISRDNAKNTVYLQMNSLKPEDTAVYYCAADRSDLAEEGYAGYDYWGQGTQVTVSS”, the “polyreactivity (PSR sort gate)” value is reported as “low polyreactivity”.
With “QVQLVESGGGLVQAGGSLRLSCAASGFIFDKYAMGWYRQAPGKERELVATITSGGSTYYADSVKGRFTISRDNAKNTVYLQMNSLKPEDTAVYYCAALDYGYRWYRYYYWGQGTQVTVSS” the “polyreactivity (PSR sort gate)” value was “high polyreactivity”.
For “QVQLVESGGGLVQAGGSLRLSCAASGFIFDKYVMGWYRQAPGKERELVAAISSGGSTYYADSVKGRFTISRDNAKNTVYLQMNSLKPEDTAVYYCNAGGFWPWVYGYDSWGQGTQVTVSS”, the “polyreactivity (PSR sort gate)” value was “high polyreactivity”.
In the case of “QVQLVESGGGLVQAGGSLRLSCAASGFIFDRNTMGWYRQAPGKERELVAAISRSGGSTYYADSVKGRFTISRDNAKNTVYLQMNSLKPEDTAVYYCAALYYYRNRSYDYWGQGTQVTVSS”, the “polyreactivity (PSR sort gate)” value is reported as “high polyreactivity”.
For “QVQLVESGGGLVQAGGSLRLSCAASGFIFDRYAMGWYRQAPGKERELVAAIDTASSTNYADSVKGRFTISRDNAKNTVYLQMNSLKPEDTGVYYCNASGYYYVIYWKVSNYNYWGQGTQVTVSS”, the “polyreactivity (PSR sort gate)” value was “low polyreactivity”.
